Assay results as given in patent US20220010021A1 (Sanofi, published 2022).

T1: human beta-Klotho (KLB) (human, UniProt Q86Z14 53-997)
T1 construct: Bought soluble protein; also called human KLB; ß-Klotho
T1 sequence (looked up): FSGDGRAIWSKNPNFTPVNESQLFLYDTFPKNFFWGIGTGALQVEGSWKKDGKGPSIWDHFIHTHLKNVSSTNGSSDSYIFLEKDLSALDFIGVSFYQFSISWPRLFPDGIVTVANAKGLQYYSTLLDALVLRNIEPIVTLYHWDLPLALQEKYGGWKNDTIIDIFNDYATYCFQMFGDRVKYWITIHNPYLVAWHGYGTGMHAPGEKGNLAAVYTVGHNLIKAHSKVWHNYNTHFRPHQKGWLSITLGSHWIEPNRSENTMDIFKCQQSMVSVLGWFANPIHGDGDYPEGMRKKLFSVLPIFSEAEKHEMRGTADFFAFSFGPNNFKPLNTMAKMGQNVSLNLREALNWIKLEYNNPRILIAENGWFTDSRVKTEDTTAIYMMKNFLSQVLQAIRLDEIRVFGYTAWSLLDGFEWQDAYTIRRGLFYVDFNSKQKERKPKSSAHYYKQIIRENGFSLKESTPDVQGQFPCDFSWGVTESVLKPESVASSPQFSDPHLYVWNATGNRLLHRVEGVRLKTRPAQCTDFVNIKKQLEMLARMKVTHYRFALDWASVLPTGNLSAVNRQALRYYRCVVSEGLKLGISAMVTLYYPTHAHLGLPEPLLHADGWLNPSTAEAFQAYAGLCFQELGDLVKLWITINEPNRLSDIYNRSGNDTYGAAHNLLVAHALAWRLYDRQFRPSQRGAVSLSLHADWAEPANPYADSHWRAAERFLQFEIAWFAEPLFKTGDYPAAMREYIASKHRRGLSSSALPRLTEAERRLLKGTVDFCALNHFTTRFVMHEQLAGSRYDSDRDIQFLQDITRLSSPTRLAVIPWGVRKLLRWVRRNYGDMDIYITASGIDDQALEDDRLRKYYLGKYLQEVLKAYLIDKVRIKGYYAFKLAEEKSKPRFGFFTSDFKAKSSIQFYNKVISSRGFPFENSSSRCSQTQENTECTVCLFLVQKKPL

T2: human beta-Klotho (KLB) (human, UniProt Q86Z14 53-997)
T2 construct: bought protein, used as analyte in the off-rate screening; also called human KLB; β-Klotho
T2 sequence (looked up): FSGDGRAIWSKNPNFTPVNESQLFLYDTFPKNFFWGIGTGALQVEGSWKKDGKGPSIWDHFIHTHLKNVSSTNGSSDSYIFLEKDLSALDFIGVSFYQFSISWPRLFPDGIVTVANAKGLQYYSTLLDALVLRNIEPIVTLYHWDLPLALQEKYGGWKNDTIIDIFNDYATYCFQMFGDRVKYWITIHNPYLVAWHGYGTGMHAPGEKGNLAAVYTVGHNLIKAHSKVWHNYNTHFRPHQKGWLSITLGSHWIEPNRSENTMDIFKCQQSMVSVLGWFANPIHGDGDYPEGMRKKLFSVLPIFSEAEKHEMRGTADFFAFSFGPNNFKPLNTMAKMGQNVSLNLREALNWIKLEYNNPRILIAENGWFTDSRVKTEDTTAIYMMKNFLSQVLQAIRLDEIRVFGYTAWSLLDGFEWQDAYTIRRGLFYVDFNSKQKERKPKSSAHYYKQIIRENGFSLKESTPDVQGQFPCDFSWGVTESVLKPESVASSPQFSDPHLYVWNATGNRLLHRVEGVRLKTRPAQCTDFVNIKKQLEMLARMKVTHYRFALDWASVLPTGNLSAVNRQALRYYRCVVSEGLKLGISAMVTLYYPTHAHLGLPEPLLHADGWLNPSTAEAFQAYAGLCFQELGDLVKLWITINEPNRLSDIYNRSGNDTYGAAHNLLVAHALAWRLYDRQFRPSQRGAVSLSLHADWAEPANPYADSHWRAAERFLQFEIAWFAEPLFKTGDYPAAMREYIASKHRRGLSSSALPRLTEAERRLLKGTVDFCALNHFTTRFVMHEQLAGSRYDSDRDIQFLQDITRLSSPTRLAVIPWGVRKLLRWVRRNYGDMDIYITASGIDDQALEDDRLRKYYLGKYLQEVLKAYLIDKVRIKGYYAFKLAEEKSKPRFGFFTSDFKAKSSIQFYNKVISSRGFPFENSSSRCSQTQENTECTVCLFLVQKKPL

B1: 16H7 light chain variant S31P (antibody, V domains shown)
VH: not shown
VL: SYVLTQPPSVSVAPGQTARITCGGNNIGSEPVHWYQQKPGQAPVLVVYDDSDRPSGIPERFSGSNSGNTATLTISRVEAGDEADYYCQVWDGNSDHVVFGGGTKLTVLG
notes: copies: 2 + 2
B2: 16H7 light chain variant S31M (antibody, human IgG4 S228P, lambda, V domains shown)
VH: not shown
VL: SYVLTQPPSVSVAPGQTARITCGGNNIGSEMVHWYQQKPGQAPVLVVYDDSDRPSGIPERFSGSNSGNTATLTISRVEAGDEADYYCQVWDGNSDHVVFGGGTKLTVLG
B3: 16H7 light chain variant S31D (antibody, human IgG4 S228P, lambda, V domains shown)
VH: not shown
VL: SYVLTQPPSVSVAPGQTARITCGGNNIGSEDVHWYQQKPGQAPVLVVYDDSDRPSGIPERFSGSNSGNTATLTISRVEAGDEADYYCQVWDGNSDHVVFGGGTKLTVLG
B4: 16H7 light chain variant S31C (antibody, human IgG4 S228P, lambda, V domains shown)
VH: not shown
VL: SYVLTQPPSVSVAPGQTARITCGGNNIGSECVHWYQQKPGQAPVLVVYDDSDRPSGIPERFSGSNSGNTATLTISRVEAGDEADYYCQVWDGNSDHVVFGGGTKLTVLG
B5: 16H7 light chain variant S31W (antibody, human IgG4 S228P, lambda, V domains shown)
VH: not shown
VL: SYVLTQPPSVSVAPGQTARITCGGNNIGSEWVHWYQQKPGQAPVLVVYDDSDRPSGIPERFSGSNSGNTATLTISRVEAGDEADYYCQVWDGNSDHVVFGGGTKLTVLG
B6: 16H7 light chain variant S31I (antibody, human IgG4 S228P, lambda, V domains shown)
VH: not shown
VL: SYVLTQPPSVSVAPGQTARITCGGNNIGSEIVHWYQQKPGQAPVLVVYDDSDRPSGIPERFSGSNSGNTATLTISRVEAGDEADYYCQVWDGNSDHVVFGGGTKLTVLG
B7: 16H7 light chain variant S29V (antibody, human IgG4 S228P, lambda, V domains shown)
VH: not shown
VL: SYVLTQPPSVSVAPGQTARITCGGNNIGVESVHWYQQKPGQAPVLVVYDDSDRPSGIPERFSGSNSGNTATLTISRVEAGDEADYYCQVWDGNSDHVVFGGGTKLTVLG
B8: 16H7 variant with light chain substitution D52E (antibody, V domains shown)
VH: not shown
VL: SYVLTQPPSVSVAPGQTARITCGGNNIGSESVHWYQQKPGQAPVLVVYDDSERPSGIPERFSGSNSGNTATLTISRVEAGDEADYYCQVWDGNSDHVVFGGGTKLTVLG
B9: 16H7 light chain variant S29M (antibody, human IgG4 S228P, lambda, V domains shown)
VH: not shown
VL: SYVLTQPPSVSVAPGQTARITCGGNNIGMESVHWYQQKPGQAPVLVVYDDSDRPSGIPERFSGSNSGNTATLTISRVEAGDEADYYCQVWDGNSDHVVFGGGTKLTVLG
B10: 16H7 variant with light chain substitution D52A (antibody, V domains shown)
VH: not shown
VL: SYVLTQPPSVSVAPGQTARITCGGNNIGSESVHWYQQKPGQAPVLVVYDDSARPSGIPERFSGSNSGNTATLTISRVEAGDEADYYCQVWDGNSDHVVFGGGTKLTVLG
B11: 16H7 light chain variant S29R (antibody, V domains shown)
VH: not shown
VL: SYVLTQPPSVSVAPGQTARITCGGNNIGRESVHWYQQKPGQAPVLVVYDDSDRPSGIPERFSGSNSGNTATLTISRVEAGDEADYYCQVWDGNSDHVVFGGGTKLTVLG
notes: copies: 2 + 2
B12: 16H7 variant with light chain substitution D52G (antibody, V domains shown)
VH: not shown
VL: SYVLTQPPSVSVAPGQTARITCGGNNIGSESVHWYQQKPGQAPVLVVYDDSGRPSGIPERFSGSNSGNTATLTISRVEAGDEADYYCQVWDGNSDHVVFGGGTKLTVLG

How the values were obtained:
human beta-Klotho (KLB) [1] = biological target: T1, human beta-Klotho (KLB); test: BLI off-rate screen, supernatant;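 further: expression supernatants tested at 25 µg/mL, dissociation followed for 1800 s in D-PBS with 0.1% BSA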
[2] = biological target: cell surface receptor composed of FGFR1c and co-receptor beta-Klotho (KLB) (human, UniProt P11362 22-822; Q86Z14 1-1044); test: cell-based or functional assay
[3] = biological target: human FGFR1c/KLB receptor complex on iLite FGF21 Assay Ready Cells (human, UniProt P11362 22-822; Q86Z14 1-1044); test: cell-based or functional assay
human beta-Klotho (KLB) [4] = biological target: T2, human beta-Klotho (KLB); test: BLI off-rate screening, mAb captured, KLB analyte;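 further: Off-rate taken from the dissociation phase, biosensors held in D-PBS with 0.1% BSA over 1800 s, antibody supernatants diluted to 25 µg/mL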
Wherever Mean E max (%) is given: reference of the scale not given here.
Wherever Mean E max, Luciferase reporter gene assay is given: reference of the scale not given here.

Sequence of human FGFR1c/KLB receptor complex on iLite FGF21 Assay Ready Cells (P11362 22-822, chain 1 of 2): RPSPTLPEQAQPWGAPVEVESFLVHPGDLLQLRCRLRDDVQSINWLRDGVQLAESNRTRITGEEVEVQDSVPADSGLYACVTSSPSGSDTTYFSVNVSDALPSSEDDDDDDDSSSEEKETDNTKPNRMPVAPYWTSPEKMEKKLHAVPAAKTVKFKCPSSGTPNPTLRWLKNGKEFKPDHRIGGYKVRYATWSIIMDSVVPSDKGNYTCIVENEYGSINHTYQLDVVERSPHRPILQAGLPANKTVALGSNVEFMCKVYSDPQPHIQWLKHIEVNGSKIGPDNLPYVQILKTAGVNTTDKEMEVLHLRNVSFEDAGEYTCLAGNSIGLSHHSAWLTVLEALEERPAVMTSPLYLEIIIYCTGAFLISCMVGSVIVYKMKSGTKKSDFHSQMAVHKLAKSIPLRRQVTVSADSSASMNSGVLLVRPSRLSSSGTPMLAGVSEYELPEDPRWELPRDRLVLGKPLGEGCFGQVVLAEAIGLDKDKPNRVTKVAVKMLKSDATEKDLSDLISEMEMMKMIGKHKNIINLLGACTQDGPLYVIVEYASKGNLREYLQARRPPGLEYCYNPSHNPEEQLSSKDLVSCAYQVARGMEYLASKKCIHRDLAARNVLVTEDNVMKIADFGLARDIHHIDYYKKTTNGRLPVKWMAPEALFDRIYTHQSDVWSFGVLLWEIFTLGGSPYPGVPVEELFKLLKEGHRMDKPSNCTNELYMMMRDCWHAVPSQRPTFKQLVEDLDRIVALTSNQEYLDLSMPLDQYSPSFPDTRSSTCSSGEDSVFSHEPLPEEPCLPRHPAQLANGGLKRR
Sequence of human FGFR1c/KLB receptor complex on iLite FGF21 Assay Ready Cells (Q86Z14 whole entry, chain 2 of 2): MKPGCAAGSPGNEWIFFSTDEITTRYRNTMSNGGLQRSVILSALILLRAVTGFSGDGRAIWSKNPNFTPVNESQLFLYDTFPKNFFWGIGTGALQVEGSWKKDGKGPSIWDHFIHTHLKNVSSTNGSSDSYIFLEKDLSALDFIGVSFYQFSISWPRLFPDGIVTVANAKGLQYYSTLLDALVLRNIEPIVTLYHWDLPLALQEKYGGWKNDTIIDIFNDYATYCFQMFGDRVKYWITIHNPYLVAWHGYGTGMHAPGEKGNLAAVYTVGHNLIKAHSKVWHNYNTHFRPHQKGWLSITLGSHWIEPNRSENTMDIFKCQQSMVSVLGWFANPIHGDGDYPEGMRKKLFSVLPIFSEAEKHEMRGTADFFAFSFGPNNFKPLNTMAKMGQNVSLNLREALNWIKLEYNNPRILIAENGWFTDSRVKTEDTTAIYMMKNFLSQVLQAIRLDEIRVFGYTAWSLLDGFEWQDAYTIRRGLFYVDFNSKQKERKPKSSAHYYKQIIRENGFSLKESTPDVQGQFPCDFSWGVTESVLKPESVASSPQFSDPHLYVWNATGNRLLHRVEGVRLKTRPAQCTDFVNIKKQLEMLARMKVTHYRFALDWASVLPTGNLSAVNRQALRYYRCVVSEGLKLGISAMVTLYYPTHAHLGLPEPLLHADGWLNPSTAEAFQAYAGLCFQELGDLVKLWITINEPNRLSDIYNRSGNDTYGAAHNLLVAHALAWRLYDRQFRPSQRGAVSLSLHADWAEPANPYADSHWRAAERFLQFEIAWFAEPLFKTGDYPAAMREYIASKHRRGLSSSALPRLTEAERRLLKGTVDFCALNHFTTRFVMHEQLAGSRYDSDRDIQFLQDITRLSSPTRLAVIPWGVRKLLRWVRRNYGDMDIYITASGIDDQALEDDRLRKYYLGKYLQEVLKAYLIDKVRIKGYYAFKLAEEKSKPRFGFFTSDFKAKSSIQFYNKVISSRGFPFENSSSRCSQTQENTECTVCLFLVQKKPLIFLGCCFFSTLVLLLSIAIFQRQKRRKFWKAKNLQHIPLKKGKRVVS
Sequence of cell surface receptor composed of FGFR1c and co-receptor beta-Klotho (KLB) (P11362 22-822, chain 1 of 2): as the sequence (P11362 22-822, chain 1 of 2) above
Sequence of cell surface receptor composed of FGFR1c and co-receptor beta-Klotho (KLB) (Q86Z14 whole entry, chain 2 of 2): as the sequence (Q86Z14 whole entry, chain 2 of 2) above

| Binder | koff (human beta-Klotho (KLB) [1]) | Mean E max, Luciferase reporter gene assay [2] | Mean EC50, Luciferase reporter gene assay [2] | Mean E max (%) [3] | Mean EC50 [3] | koff (human beta-Klotho (KLB) [4]) |
| --- | --- | --- | --- | --- | --- | --- |
| B1 | 6.6e-05 s⁻¹ | 103% | 0.104 nM |  |  |  |
| B2 | 0.0003 s⁻¹ | 97% | 0.151 nM |  |  |  |
| B3 | 0.00019 s⁻¹ | 99% | 0.077 nM |  |  |  |
| B4 | 0.00017 s⁻¹ | 100% | 0.128 nM |  |  |  |
| B5 | 0.00034 s⁻¹ | 103% | 0.178 nM |  |  |  |
| B6 | 0.00015 s⁻¹ | 93% | 0.089 nM |  |  |  |
| B7 | 1.3e-05 s⁻¹ | 107% | 0.109 nM |  |  |  |
| B8 |  |  |  | 123% | 0.114 nM | 1e-07 s⁻¹ |
| B9 | 2.3e-05 s⁻¹ | 106% | 0.133 nM |  |  |  |
| B10 |  |  |  | 101% | 0.163 nM | 4.8e-05 s⁻¹ |
| B11 | 6.7e-06 s⁻¹ | 105% | 0.184 nM |  |  |  |
| B12 |  |  |  | 109% | 0.125 nM | 3.7e-05 s⁻¹ |
